Source: patent CN110256561A (DONGDA BIOLOGY TECH SUZHOU CO LTD, dated 2019)
Each block holds one binder with its values, some of them ahead of it.

Columns and labels:
[1] = molecular target: T1, CTLA-4-hFc蛋白 (human CTLA-4 fused to human Fc) (human, UniProt P16410 36-161, limits assumed); assay: competition ELISA, CTLA-4-hFc coated, competitor CD80-biotin
T1 construct: Coated on ELISA plates; also called CTLA-4-Fc; not shown: human Fc (hFc)
T1 sequence (looked up): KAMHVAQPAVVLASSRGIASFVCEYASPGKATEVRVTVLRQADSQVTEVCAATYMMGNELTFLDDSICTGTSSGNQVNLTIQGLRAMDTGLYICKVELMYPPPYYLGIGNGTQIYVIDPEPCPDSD

[2] = molecular target: T1, CTLA-4-hFc蛋白 (human CTLA-4 fused to …); assay: ELISA, CTLA-4-hFc coated; low end of the group's range, tied by Table 5 to 3D2A10
[3] = molecular target: T2, 293T-CTLA-4细胞 (human CTLA-4 on 293T cells) (human, UniProt P16410 36-223); assay: competition FACS on 293T-CTLA-4 cells, competitor CD80-biotin; the lowest, tied by Table 8 to 3D2A10
T2 construct: whole, on cells; also called 人CTLA-4
T2 sequence (looked up): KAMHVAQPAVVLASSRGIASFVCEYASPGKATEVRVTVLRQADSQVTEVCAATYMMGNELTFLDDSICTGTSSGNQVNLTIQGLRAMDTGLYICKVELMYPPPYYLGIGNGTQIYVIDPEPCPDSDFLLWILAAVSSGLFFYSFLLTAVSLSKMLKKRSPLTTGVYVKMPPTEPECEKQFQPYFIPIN

[4] = molecular target: T1, CTLA-4-hFc蛋白 (human CTLA-4 fused to …); assay: ELISA, CTLA-4-hFc coated
[5] = molecular target: T1, CTLA-4-hFc蛋白 (human CTLA-4 fused to …); assay: competition ELISA, CTLA-4-hFc coated, competitor CD80-biotin; the lowest, tied by Table 6 to 3D2A10
[6] = molecular target: T2, 293T-CTLA-4细胞 (human CTLA-4 on 293T …); assay: FACS on 293T-CTLA-4 cells
[7] = molecular target: T2, 293T-CTLA-4细胞 (human CTLA-4 on 293T …); assay: competition FACS on 293T-CTLA-4 cells, competitor CD80-biotin
[8] = molecular target: T2, 293T-CTLA-4细胞 (human CTLA-4 on 293T …); assay: FACS on 293T-CTLA-4 cells; the lowest, tied by Table 7 to 10F8D1

- IC50 [1]: 0.352 µg/mL
- EC50 [2]: 0.001 µg/mL
- IC50 [3]: < 0.7 µg/mL
- EC50 [4]: 0.0012 µg/mL
- IC50 [5]: < 0.36 µg/mL
- EC50 [6]: 0.0788 µg/mL
- IC50 [7]: 0.696 µg/mL
B1: 3D2A10人源化抗体 (humanized CTLA-4 antibody 3D2A10, IgG1) (antibody, V domains shown)
VH: QVTLKESGPVLVKPTETLTLTCTVSGFSLTNYAVHWIRQPPGKALEWLGVIWSGGYIDYNAVFISRLTISKDNSKSQAVLTMTNMDPVDTATYYCARSGETGTYYFDYWGQGTLVTVSS
VL: EIVMTQSPATLSVSPGERATLSCRASENIYSYLAWYQQKPGQAPRLLVYSATKLANGIPARFSGSGSGTEYTLTISSLQSEDFAVYYCQHFWGTPWTFGGGTKVEIKR
notes: Humanized by CDR grafting with back mutations, built as IgG1, made in 293 cells; also called 人源化CTLA-4抗体3D2A10

- EC50 [8]: < 0.024 µg/mL
- IC50 [1]: 0.388 µg/mL
- EC50 [4]: 0.00149 µg/mL
- EC50 [6]: 0.0231 µg/mL
- IC50 [7]: 1.66 µg/mL
B2: 10F8D1人源化抗体 (humanized CTLA-4 antibody 10F8D1, IgG1) (antibody, V domains shown)
VH: QVQLVQSGAEVKKPGASVKVSCKASGYTFTNYWMHWVRQAPGQGLEWIGYINPTTTYTNYNQKFKDRATLTADKSISTAYMELSRLRSDDTAVYYCATTAQATGYGMDFWGQGTLVTVSS
VL: DIVMTQSPDSLAVSLGERATINCKSTQSLLNSGNQRNYLTWYQQKPGQPPKLLIYWASTRESGVPDRFSGSGSGTDFTLTISSLQAEDVAVYYCQNDYSFPLTFGQGTKLEIKR
notes: Humanized by CDR grafting with back mutations, built as IgG1, made in 293 cells; also called 人源化CTLA-4抗体10F8D1
